According to article PMC4208696 (Biophysical chemistry, 2014):
Where two headings read alike, the source gives them in different places.

How the values were obtained:
Experiment in all cases: fluorescence polarisation
[1] = target: T1, full-length mammalian calmodulin (CaM_(1–148)) (mammalian (no species named), UniProt P0DP23 1-149)
[2] = target: T2, CaM N-domain fragment, residues 1 to 80 (CaM_(1–80)) (mammalian (no species named), UniProt P0DP23 2-81)
[3] = target: T3, CaM C-domain fragment, residues 76 to 148 (CaM_(76–148)) (mammalian (no species named), UniProt P0DP23 77-149)
[4] = target: T1, full-length mammalian calmodulin …; remark: listed apart in the source
[5] = target: T2, CaM N-domain fragment, residues 1 to 80 …; remark: listed apart in the source
[6] = target: T3, CaM C-domain fragment, residues 76 to …; remark: listed apart in the source

B1: Fl–hRyR1(1975–1999)p: hRyR1(1975–1999)p with a 5,6-carboxyfluorescein moiety at the N-terminus (peptide)
peptide: {5,6‑carboxyfluorescein}-SRYGLLIKAFSMTAAETARRTREFR-NH2
[1]
  Kd: 0.66 ± 0.01 µM
[2]
  Kd: 12.5 ± 1.95 µM
[3]
  Kd: 9.21 ± 0.82 µM
[4]
  Kd: ~850 µM
[5]
  Kd: ~7000 µM
[6]
  Kd: ~650 µM

B2: Fl–hRyR1(3614–3643)p: hRyR1(3614–3643)p with a 5,6-carboxyfluorescein moiety at the N-terminus (peptide)
peptide: {5,6‑carboxyfluorescein}-KSKKAVWHKLLSKQRRRAVVACFRMTPLYN-NH2
[1]
  Kd: ≤ 0.001 µM
[2]
  Kd: 2.5 ± 0.83 µM
[3]
  Kd: ≤ 0.01 µM
[4]
  Kd: 6.79 ± 3.05 µM
[5]
  Kd: ~1500 µM
[6]
  Kd: 24.9 ± 4.27 µM
